1 substance from US20230036481A1 can be followed below.

Test [1] has as its target CD19 on Raji-Luc cells (CD19+ B cell lymphoma cell line) (human) (UniProt P15391). The test is described as follows: cell-based or functional assay.
For test [2], the target named is tagged human CD19 recombinant protein (human) (UniProt P15391). The test is described as follows: flow cytometry; transduced oNK cells stained with tagged CD19 recombinant protein and fluorescent anti-Myc antibody, after sorting. In general terms: Flow cytometry measures light scatter and fluorescence of single cells or particles in a stream.
For test [3] the target is unchanged. The test is described as follows: flow cytometry; transduced oNK cells stained with tagged CD19 recombinant protein and fluorescent anti-Myc antibody, before enrichment.

As for “anti-CD19 chimeric antigen receptor (CAR) expressed on oNK cells (CAR19-oNK)”, in test [1], the percentage of cytotoxicity (luciferase luminescence), E:T 0.2:1, 1 hour was determined as 13.9%; the percentage of cytotoxicity (luciferase luminescence), E:T 0.5:1, 1 hour came out at 45.9%; the percentage of cytotoxicity (luciferase luminescence), E:T 1:1, 1 hour was 64.1%; the percentage of cytotoxicity (luciferase luminescence), E:T 2:1, 1 hour stood at 80%. The substance also had a percentage of cytotoxicity (luciferase luminescence), E:T 5:1, 1 hour in test [1] of 91.4%. The double positive of fluorescent signal of expressed Myc tag and bound human CD19 recombinant protein (% of cells) in test [2] amounted to 82.3%. For the same substance, the double positive of fluorescent signal of expressed Myc tag and bound human CD19 recombinant protein (% of cells) in test [3] worked out at 9.06%.
